Assays:
[1] = biological target: human LOX1 on cells (human LOX1 transfected CHO TREX cells) (human) (UniProt P78380); assay: cell-based or functional assay
[2] = biological target: human LOX1 on cells (human LOX1 transfected CHO TREX cells) (human) (UniProt P78380); assay: competition with DyLight 649 oxLDL on human LOX1 CHO TREX cells, FMAT
[3] = biological target: human LOX1 on cells (human LOX1 transfected CHO TREX cells) (human) (UniProt P78380); assay: competition with DyLight 649 AGE-BSA on human LOX1 CHO TREX cells, FMAT
[4] = biological target: recombinant human LOX1 (R&D Systems) (human) (UniProt P78380); assay: competition with biotin CRP on plate-bound recombinant human LOX1, DELFIA

- IC50 of inhibition of Cypher 5E oxLDL internalization in hLOX1 CHO TREX cells (row label not given; assay assigned by block order of Table 5) [1]: 2.85 nM
- IC50 of inhibition of oxLDL-dependent ROS generation in hLOX1 CHO TREX cells (row label not given; assay assigned by block order of Table 5) [1]: 10.1 nM
- IC50 (read off the curve) [2]: 3 nM
- IC50 (read off the curve) [3]: 2 nM
- IC50 (read off the curve) [4]: 10 nM
Substance: 23C11, commercially available mouse anti-LOX-1 antibody

From patent US20210347900A1
